Results on two substances are retold here after article PMC8637272.

pKd: −log10 of the molar value.

The data set has as its system enolase (ENO) (Mycoplasma gallisepticum S6). The data set can be described thus: EMSA. The following applies: EMSA: 20 mM carbonate buffer pH 9.8, 6% glycerol, 2.5 pmol FAM-DNA, 10 min 37 C, 6% acrylamide gel at 10 C. AFM: 20 mM Tris-HCl pH 7.5 (Methods; Fig 6 legend …).

In turn, Peno had a pKd (Hill n 3.1 +/- 0.6) of 6.00. Regarding Pgapd, the pKd (Hill n 2.7 +/- 0.8) was 5.96.
